Tested on: MS2 coat protein
Assay: apparent KD of MS2 coat protein; designed switch direction (-1 OFF switch, 1 ON switch): -1; higher = weaker reporter binding
Outline: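 Normalised cluster fluorescence was curve-fitted, and each design's median over clusters is its apparent KD. Before this, SNAP-549-labelled MS2 coat protein was titrated from 0.7 or 1.5 nM, doubling to 3 µM, over RNA switches transcribed on Illumina chips by stalled E. coli RNA polymerase. Titrations had no input, 200 uM small-molecule ligand, or an oligonucleotide input, and steps lasted 0.8–1.5 h (lowest) to 10–20 min (highest).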

[1] = input ligand: microRNA oligo, concentration not stated
[2] = Eterna round: R95, input ligand: FMN 200 uM
[3] = Eterna round: R95, input ligand: microRNA oligo, concentration not stated
[4] = Eterna round: R95, input ligand: none

Sequence: CGGCGACAUGAGGAUCACCCAUGUGAGGAUAUGACGGGAAAAGCGUGAGCGGUUUGUGUCAGAAGGCGCGUAGG [salish99_ex1_r4_084] (Eterna round: R97, puzzle: Exclusion 1)
- apparent KD of MS2 coat protein (input ligand: FMN 200 uM): 20.8 nM
- apparent KD of MS2 coat protein (input ligand: none): 28.7 nM

Sequence: CGGGACGUCCUGAUAAUAAGACAUGAGGAUCACCCAUGUCGGCAGGAUAUCAGUCCUUACGGUUUUGAGAAGGGUCGACAACCA [Birace] (Eterna round: R96, puzzle: Exclusion NG 3)
- apparent KD of MS2 coat protein (input ligand: FMN 200 uM): 14.1 nM
- apparent KD of MS2 coat protein [1]: 8.27 nM
- apparent KD of MS2 coat protein (input ligand: none): 13.4 nM

Sequence: CGGUCCUGAGUGAGGAUAUUGUCAGGCGAAGCCUGCAAGAAGGUACUUGAGGAUCACCCAAGUACGCUCUUGGC [Estimama] (Eterna round: R97, puzzle: Brourd's mod of Exclusion 4)
- apparent KD of MS2 coat protein (input ligand: FMN 200 uM): 21.2 nM
- apparent KD of MS2 coat protein (input ligand: none): 16.8 nM

Sequence: CGGUGCUGAGGAUAUACAUGAGGAUCACCCAUGUGUUCCAGCUAGGUGACUGGCAAAUGUAGAAGGCGGUACUG [JL-ex3-3.36 Brourd mod] (puzzle: Exclusion 3)
- apparent KD of MS2 coat protein [2]: 40.7 nM
- apparent KD of MS2 coat protein [3]: 77.7 nM
- apparent KD of MS2 coat protein [4]: 105 nM

Sequence: CGGUGCUGAGGAUAUACAUGAGGAUCACCCAUGUGUUCCAGCUAGGUGACUGGCGGAUGUAGAAGGCGGUACUG [JL-ex3-3.39 Brourd mod] (puzzle: Exclusion 3)
- apparent KD of MS2 coat protein [2]: 245 nM
- apparent KD of MS2 coat protein [3]: 31.2 nM
- apparent KD of MS2 coat protein [4]: 64.8 nM

Sequence: CGGUGUAGAGGAUAUACGUGGAUAUAAGAACAUGAUAAUUUACAUGAGGAUCACCCAUGUAGAAGGCUAUAGCG [JR_Ex2_Sub080] (Eterna round: R97, puzzle: Exclusion 2)
- apparent KD of MS2 coat protein (input ligand: FMN 200 uM): 74.8 nM
- apparent KD of MS2 coat protein (input ligand: none): 207 nM

Sequence: CGUACUGAAGUGAGGAUAUUGUCUCGGAUACGAAACAAGAAGGCACAUGAGGAUCACCCAUGUUGACAGUACGA [Malc #30 mod 7] (puzzle: Brourd's mod of Exclusion 4)
- apparent KD of MS2 coat protein [3]: 15 nM

Sequence: CGUAUGUCAGGAUAUCGUGCAUACAACGAAAGUUCUAUGUGCGAGAAGGGACAUGAGGAUCACCCAUGUUUACG [Omei Ex4 A12] (Eterna round: R97, puzzle: Exclusion 4)
- apparent KD of MS2 coat protein (input ligand: FMN 200 uM): 89 nM
- apparent KD of MS2 coat protein (input ligand: none): 26.1 nM

Sequence: CGUCAGUGAGGAUAUGGUAACAUUUACAUGAGGAUCACCCAUGUUUCAUGGGACUAAAGACUAGAAGGCACUGACG [JR_Ex5_Sub031] (Eterna round: R97, puzzle: Exclusion 5)
- apparent KD of MS2 coat protein (input ligand: FMN 200 uM): 80.9 nM
- apparent KD of MS2 coat protein (input ligand: none): 36.9 nM

Sequence: CGUCGAAAUGUAGGAUAUCUGCACGUGUAGUGCAGAGAAGGACAUGAGGAUCACCCAUGUAGAUCACGACGAAUUAAUUUAAUU [ENG1/5-C3] (Eterna round: R96, puzzle: Exclusion NG 1)
- apparent KD of MS2 coat protein (input ligand: FMN 200 uM): 468 nM
- apparent KD of MS2 coat protein [1]: 50.4 nM
- apparent KD of MS2 coat protein (input ligand: none): 56.9 nM

Sequence: CGUGCGUAUGUGAGGAUAUGCUGGUCCUUGGAUCAGCAGAAGGCACAUGAGGAUCACCCAUGUGGUGUCGUACC [salish99_Bmod_Ex4_001] (puzzle: Brourd's mod of Exclusion 4)
- apparent KD of MS2 coat protein [3]: 170 nM

Sequence: CGUGUCUUUUACGUGAGUGGUGGGUGCAACAGGUGGGUUACAUGAGGAUCACCCAUGUGCUCACUUGCUCGUCUUUU [Grok-var2-09] (puzzle: Sensor v3, turn-off variant 2)
- apparent KD of MS2 coat protein [2]: 60.7 nM
- apparent KD of MS2 coat protein [3]: 39.3 nM
- apparent KD of MS2 coat protein [4]: 58.1 nM

Sequence: CGUGUGUCAGGAUAUACGUUGGGCCAGCAUGGCUAAAGACAGUAGAAGGGACAUGAGGAUCACCCAUGUGGAGU [Eternabot (L2) Solution 4] (Eterna round: R97, puzzle: Exclusion 4)
- apparent KD of MS2 coat protein (input ligand: FMN 200 uM): 571 nM
- apparent KD of MS2 coat protein (input ligand: none): 78.9 nM

Sequence: CGUUCGCGAGGAUAUGCAUUCGAGUCCACUACGUGUCUGGGACUUGAGGAUCACCCAAGUAGAAGGCGCCUCCA [salish99_ex2_r4_650] (Eterna round: R97, puzzle: Exclusion 2)
- apparent KD of MS2 coat protein (input ligand: FMN 200 uM): 78.5 nM
- apparent KD of MS2 coat protein (input ligand: none): 130 nM

Sequence: CGUUCGCGAGGAUAUGCAUUCGAGUCCACUACGUGUCUGGGACUUGAGGAUCACCCAAGUAGAAGGCGCCUCCC [salish99_ex2_r4_649] (Eterna round: R97, puzzle: Exclusion 2)
- apparent KD of MS2 coat protein (input ligand: FMN 200 uM): 71.3 nM
- apparent KD of MS2 coat protein (input ligand: none): 47.9 nM

Sequence: CGUUCGCGAGGAUAUGCAUUCGAGUCCAUUACGUGUCUGGGACUUGAGGAUCACCCAAGUAGAAGGCGUCUCAC [salish99_ex2_r4_646] (Eterna round: R97, puzzle: Exclusion 2)
- apparent KD of MS2 coat protein (input ligand: FMN 200 uM): 135 nM
- apparent KD of MS2 coat protein (input ligand: none): 154 nM

Sequence: CGUUGGUCAGGAUAUGGUGGGCUGGUCGCGCGGCCGGGUGGCUAGAAGGGACAUGAGGAUCACCCAUGUACGGC [excls4-IX] (Eterna round: R96, puzzle: Exclusion 4)
- apparent KD of MS2 coat protein (input ligand: FMN 200 uM): 60.3 nM
- apparent KD of MS2 coat protein [1]: 30.1 nM
- apparent KD of MS2 coat protein (input ligand: none): 48.9 nM

Sequence: CGUUGUAUAGGAUAUACAUGAGGAUCACCCAUGUGAAAUUAUAGUGAGGAAAUGAAAAGUAGAAGGGUAUGACA [Mod of Mat 7 - Jieux - Exclusion 3] (Eterna round: R97, puzzle: Exclusion 3)
- apparent KD of MS2 coat protein (input ligand: FMN 200 uM): 35.5 nM
- apparent KD of MS2 coat protein (input ligand: none): 45.3 nM

Sequence: CUAAAUCAUGUAGGAUAUGCGUGGCAAAGCUAUGCAGAAGGACAUGAGGAUCACCCAUGUCAUUCCGUCUGGGAACAGACGGGA [Mat - Exclusion NG 1 - Mod of JL - D52] (Eterna round: R96, puzzle: Exclusion NG 1)
- apparent KD of MS2 coat protein (input ligand: FMN 200 uM): 158 nM
- apparent KD of MS2 coat protein [1]: 17.5 nM
- apparent KD of MS2 coat protein (input ligand: none): 24.5 nM

Sequence: CUAAAUCAUGUAGGAUAUGCGUGGCAAAGCUAUGCAGAAGGACAUGAGGAUCACCCAUGUGCUUCCGUCUGCGUACAGACGGUA [Mat - Exclusion NG 1 - Mod of JL - D21] (Eterna round: R96, puzzle: Exclusion NG 1)
- apparent KD of MS2 coat protein (input ligand: FMN 200 uM): 551 nM
- apparent KD of MS2 coat protein [1]: 79.2 nM
- apparent KD of MS2 coat protein (input ligand: none): 110 nM

Sequence: CUAAAUCAUGUAGGAUAUGCGUGGCGAAGCUAUGCAGAAGGACAUGAGGAUCACCCAUGUCUUUCCGUCUGCGUACAGACGGAA [JL ENG1 1.19] (Eterna round: R96, puzzle: Exclusion NG 1)
- apparent KD of MS2 coat protein (input ligand: FMN 200 uM): 303 nM
- apparent KD of MS2 coat protein [1]: 17.3 nM
- apparent KD of MS2 coat protein (input ligand: none): 23.5 nM

Sequence: CUAAAUCAUGUAGGAUAUGCGUGGCGAAGCUAUGCAGAAGGACAUGAGGAUCACCCAUGUGCUUCCGUCUGCGUACAGACGGUA [JL ENG1 1.16] (Eterna round: R96, puzzle: Exclusion NG 1)
- apparent KD of MS2 coat protein (input ligand: FMN 200 uM): 136 nM
- apparent KD of MS2 coat protein [1]: 59.7 nM
- apparent KD of MS2 coat protein (input ligand: none): 83.3 nM

Sequence: CUAGAGUGAGGAUAUACGAGAUCGAAAGAUCGGCGAUCCCUACAUGAGGAUCACCCAUGUAGAAGGCACUCUAG [Mod 12 - Jieux - Exclusion 2] (Eterna round: R97, puzzle: Exclusion 2)
- apparent KD of MS2 coat protein (input ligand: FMN 200 uM): 115 nM
- apparent KD of MS2 coat protein (input ligand: none): 16 nM

Sequence: CUAGAUCUUCGGAUCUAGGACAUGAGGAUCACCCAUGUCACGAGCAGAUCUUCAUGCAAGCUUUUUGCUCGUCUUAU [Sensor v3 - Turn-off variant 1 - 37] (Eterna round: R96, puzzle: Sensor v3, turn-off variant 1)
- apparent KD of MS2 coat protein (input ligand: FMN 200 uM): 27 nM
- apparent KD of MS2 coat protein [1]: 339 nM
- apparent KD of MS2 coat protein (input ligand: none): 29.2 nM

Sequence: CUAGAUCUUCGGAUCUAGGACAUGAGGAUCACCCAUGUCACGAGCAGAUCUUCAUGCAAGCUUUUUGCUCGUCUUAU [Sensor v3 - Turn-off variant 1 - 37] (puzzle: Sensor v3, turn-off variant 1)
- apparent KD of MS2 coat protein [2]: 27.3 nM
- apparent KD of MS2 coat protein [3]: 409 nM
- apparent KD of MS2 coat protein [4]: 33.4 nM

Sequence: CUAGAUCUUCGGAUCUAGUACAUGAGGAUCACCCAUGUGACGAGUAGAUCCUCAAACAAGCUUUUUGCUCGUCUUAU [Sensor v3 - Turn-off variant 1 - 20] (Eterna round: R96, puzzle: Sensor v3, turn-off variant 1)
- apparent KD of MS2 coat protein (input ligand: FMN 200 uM): 132 nM
- apparent KD of MS2 coat protein [1]: 16.4 nM
- apparent KD of MS2 coat protein (input ligand: none): 194 nM

Sequence: CUAGAUCUUCGGAUCUAGUACAUGAGGAUCACCCAUGUGACGAGUAGAUCCUCAAACAAGCUUUUUGCUCGUCUUAU [Sensor v3 - Turn-off variant 1 - 20] (puzzle: Sensor v3, turn-off variant 1)
- apparent KD of MS2 coat protein [2]: 43.3 nM
- apparent KD of MS2 coat protein [3]: 9.51 nM
- apparent KD of MS2 coat protein [4]: 111 nM

Sequence: CUAGAUCUUCGGAUCUAGUACAUGAGGAUCACCCAUGUGACGAGUAUAUCUUCAAACAAGCUUUUUGCUCGUCUUAU [Sensor v3 - Turn-off variant 1 - 24] (puzzle: Sensor v3, turn-off variant 1)
- apparent KD of MS2 coat protein [2]: 37.3 nM
- apparent KD of MS2 coat protein [3]: 49.5 nM
- apparent KD of MS2 coat protein [4]: 40.6 nM

Sequence: CUAGAUCUUCGGAUCUAGUACAUGAGGAUCACCCAUGUGACGAGUUACAUGUUUUACAAGCUUUUUGCUCGUCUUAU [Sensor v3 - Turn-off variant 1 - 13] (puzzle: Sensor v3, turn-off variant 1)
- apparent KD of MS2 coat protein [2]: 39.4 nM
- apparent KD of MS2 coat protein [3]: 90.7 nM
- apparent KD of MS2 coat protein [4]: 40.5 nM

Sequence: CUAGCGAGUGUAGGAUAUCGGACUGUUUCAGUCUGAGAAGGACAUGAGGAUCACCCAUGUGUAGCUACGUGAGUAGCACGCUAG [JL ENG1 3.88] (Eterna round: R96, puzzle: Exclusion NG 1)
- apparent KD of MS2 coat protein (input ligand: FMN 200 uM): 40.2 nM
- apparent KD of MS2 coat protein [1]: 15 nM
- apparent KD of MS2 coat protein (input ligand: none): 22.3 nM

Sequence: CUAGCGGAUGUAGGAUAUCGGACUGUUUCAGUCUGAGAAGGACAUGAGGAUCACCCAUGUAUAGCUACGUGAGUAGCUCGCUAG [JL ENG1 3.95] (Eterna round: R96, puzzle: Exclusion NG 1)
- apparent KD of MS2 coat protein (input ligand: FMN 200 uM): 38.1 nM
- apparent KD of MS2 coat protein [1]: 15.3 nM
- apparent KD of MS2 coat protein (input ligand: none): 22.8 nM

Sequence: CUAGCGGAUGUAGGAUAUCGGACUGUUUCAGUCUGAGAAGGACAUGAGGAUCACCCAUGUAUAGCUGCGUGAGUAGCUCGCUAG [JL ENG1 3.96] (Eterna round: R96, puzzle: Exclusion NG 1)
- apparent KD of MS2 coat protein (input ligand: FMN 200 uM): 39.2 nM
- apparent KD of MS2 coat protein [1]: 17.5 nM
- apparent KD of MS2 coat protein (input ligand: none): 19.8 nM

Source: the supplement of paper PMC9170038
